Reference: US20120301899A1 (AGENCY FOR SCIENCE TECHNOLOGY AND RESEARCH, published 2012)

Molecular target: T1, podocalyxin-like protein-1 (PODXL) (human, UniProt O00592 23-558)
T1 construct: whole, on cells; In the flow cytometry experiments the target is undifferentiated hESC; also called PCLPI; Podocalyxin-like protein 1 precursor
T1 sequence (looked up): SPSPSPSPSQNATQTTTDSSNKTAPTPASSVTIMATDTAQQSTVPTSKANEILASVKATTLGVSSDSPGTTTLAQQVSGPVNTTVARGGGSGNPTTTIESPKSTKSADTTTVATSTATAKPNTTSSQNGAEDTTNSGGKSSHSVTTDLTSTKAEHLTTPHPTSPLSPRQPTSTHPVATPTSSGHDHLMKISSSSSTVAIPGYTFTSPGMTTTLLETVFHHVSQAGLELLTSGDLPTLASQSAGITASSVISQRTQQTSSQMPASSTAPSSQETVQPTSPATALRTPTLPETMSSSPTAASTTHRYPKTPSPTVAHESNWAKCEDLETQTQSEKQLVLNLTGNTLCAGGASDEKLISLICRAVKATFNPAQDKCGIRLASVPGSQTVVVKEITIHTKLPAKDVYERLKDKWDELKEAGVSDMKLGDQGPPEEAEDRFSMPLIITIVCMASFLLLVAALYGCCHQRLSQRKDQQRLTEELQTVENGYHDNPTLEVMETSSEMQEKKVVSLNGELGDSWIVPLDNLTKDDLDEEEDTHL
Assay: kinetics of binding to PODXL on the surface of hESCs; method not stated

Kd: 40 nM
koff: 0.0029 s⁻¹
kon: 71000 M⁻¹ s⁻¹
B1: monoclonal antibody mAb 84 (antibody, V domains shown)
VH: QVQLQQSGGGLVQPGGSMKLSCVASGFTFSNYWMNWVRQSPEKGLEWVAEIRLKSNNYATHYAESVKGRFTISRDDSKSSVYLQMNNLRAEDTGIYYCTGERAWGQGTTVTVSS
VL: DIELTQSPAIMSASPGEKVTMTCSASSSVNYMYWYQQKPGSSPRLLIYDTSNLASGVPVRFSGSGSGTSYSLTISRMEAEDAATYYCQQWSSYPYTFGGGTKLEIKR
